Results on twelve molecules are retold here after paper PMC12013264 (mSystems, 2025).

Data set [1] has as its system T1, E. coli DH10B carrying KPC-2-Tn4401a-pET28a.
T1 construct: DH10B full-length blaKPC-2 under Tn4401a promoter in pET28a
The experiment in a line: microbe, parasite or virus in culture. Set-up: species or system E. coli DH10B or K. pneumoniae; CLSI standard broth microdilution MIC in triplicate, median values. The note with it: Escherichia coli. The text has this:
(§1) The blaKPC amplicons (full length) were cloned into the Tn4401a-pET28a plasmid between the BamHI (as the 5′ end upstream) and XbaI (as the 3′ end downstream) restriction sites, which is the opposite direction of conventional induced expression for removing the His-tag expression. This insertion was downstream of the blaKPC Tn4401a promoter. The Tn4401a promoter was inserted between the EcoRI and BamHI sites. KPC expression was achieved by inserting the natural promoter Tn4401a upstream of the blaKPC gene, thus avoiding the use of the pET-28a vector’s T7 promoter and the resulting His-tag fusion. E. coli DH10B strains containing the generated KPCs-Tn4401a-pET28a plasmid underwent antimicrobial susceptibility testing in triplicate using the standard broth microdilution, following the Clinical and Laboratory Standards Institute (CLSI) recommendations (CLSI M100-S34) .

For data set [2], the system named is T2, E. coli DH10B carrying KPC-3-Tn4401a-pET28a.
T2 construct: DH10B full-length blaKPC-3 under Tn4401a promoter in pET28a
The experiment in a line: microbe, parasite or virus in culture. Also on record: species or system E. coli DH10B or K. pneumoniae; CLSI standard broth microdilution MIC in triplicate, median values. The settings on record: Escherichia coli.
Excerpt: as §1

Data set [3] relates to T3, Klebsiella pneumoniae Kpn with KPC-3.
T3 construct: K. pneumoniae producing KPC-3, positive control
The experiment in a line: microbe, parasite or virus in culture. Also on record: species or system E. coli DH10B or K. pneumoniae; CLSI standard broth microdilution MIC in triplicate, median values.

A further data set relates to T4, E. coli DH10B.
T4 construct: DH10B empty plasmid control
The experiment in a line: microbe, parasite or virus in culture. Also on record: species or system E. coli DH10B or K. pneumoniae; CLSI standard broth microdilution MIC in triplicate, median values. The settings on record: Escherichia coli.
Excerpt: as §1, with “M100-S34) . Klebsiella pneumoniae expressing KPC-3 and E. coli DH10B containing an empty plasmid served as positive and negative controls, respectively.” for “M100-S34) .”

Data set [4] deals with CC(C)(O/N=C(\C(=O)N[C@@H]1C(=O)N2C(C(=O)[O-])=C(C[n+]3ccccc3)CS[C@H]12)c1csc(N)n1)C(=O)O. The experiment in a line: purified protein. The note with it: 100 mM sodium phosphate, pH 7.0, 37 °C.
For data set [5], the system named is CCN1CCN(C(=O)N[C@@H](C(=O)N[C@@H]2C(=O)N3[C@@H]2SC(C)(C)[C@@H]3C(=O)O)c2ccccc2)C(=O)C1=O. The experiment in a line: purified protein. The settings on record: 100 mM sodium phosphate, pH 7.0, 37 °C.
In data set [6] the test system is CO/N=C(\C(=O)N[C@@H]1C(=O)N2C(C(=O)[O-])=C(C[N+]3(C)CCCC3)CS[C@H]12)c1csc(N)n1. The experiment in a line: purified protein. The note with it: 100 mM sodium phosphate, pH 7.0, 37 °C.
Data set [7] deals with C[C@@H](O)[C@H]1C(=O)N2C(C(=O)O)=C(SCCN=CN)C[C@H]12. The experiment in a line: purified protein. The settings on record: 100 mM sodium phosphate, pH 7.0, 37 °C.
The subject of data set [8] is C[C@@H](O)[C@H]1C(=O)N2C(C(=O)O)=C(S[C@@H]3CN[C@H](C(=O)N(C)C)C3)[C@H](C)[C@H]12. The experiment in a line: purified protein. The note with it: 100 mM sodium phosphate, pH 7.0, 37 °C.
In data set [9] the test system is Cc1nnc(SCC2=C(C(=O)O)N3C(=O)[C@@H](NC(=O)Cn4cnnn4)[C@H]3SC2)s1. The experiment in a line: purified protein. The note with it: 100 mM sodium phosphate, pH 7.0, 37 °C.
In a further data set the target is T5, KPC-3 (Klebsiella pneumoniae, UniProt Q93DC4).
T5 construct: gene bla; signal peptide (1-29) removed, KPC30-293 in pET28a, E. coli BL21 Rosetta-gami DE3, His-tag cut with thrombin
T5 sequence (Q93DC4 30-293 limits assumed): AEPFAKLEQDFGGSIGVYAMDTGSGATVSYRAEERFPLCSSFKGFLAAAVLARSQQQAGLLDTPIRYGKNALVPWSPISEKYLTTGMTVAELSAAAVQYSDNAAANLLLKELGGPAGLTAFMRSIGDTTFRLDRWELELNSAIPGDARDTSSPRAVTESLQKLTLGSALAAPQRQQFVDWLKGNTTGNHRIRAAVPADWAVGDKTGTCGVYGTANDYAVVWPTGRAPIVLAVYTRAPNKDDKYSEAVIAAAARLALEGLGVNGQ
The experiment in a line: isothermal titration calorimetry. It is filed as binding. The text has this: isothermal titration calorimetry on KPC-3
(In general: ITC needs no label: the signal is the heat of the interaction.)

In brackets after ≈: the same amount, converted by molar mass. Where two headings read alike, the source gives them in different places.

As to `CO/N=C(\C(=O)N[C@@H]1C(=O)N2C(C(=O)[O-])=C(C[N+]3(C)CCCC3)CS[C@H]12)c1csc(N)n1` [cefepime], the MIC in [1] (read-out: MIC (mg/L)^a / FEP) was 4 mg/L (≈ 8.32 µM); in data set [2] (read-out: MIC (mg/L) ^a / FEP) it was 8 mg/L (≈ 16.6 µM); in data set [3] (read-out: MIC (mg/L)^a / FEP) it was more than 256 mg/L; with E. coli DH10B (read-out: MIC (mg/L)^a / FEP) it was less than 0.125 mg/L.
For the molecule `C[C@@H](O)[C@H]1C(=O)N2C(C(=O)O)=C(S[C@@H]3CN[C@H](C(=O)N(C)C)C3)[C@H](C)[C@H]12` [meropenem], the MIC was 0.25 mg/L (≈ 0.652 µM) in data set [1] (read-out: MIC (mg/L)^a / MEM), 0.25 mg/L (≈ 0.652 µM) in [2] (read-out: MIC (mg/L) ^a / MEM), more than 4 mg/L in data set [3] (read-out: MIC (mg/L)^a / MEM) and less than 0.0312 mg/L in the data set on E. coli DH10B (read-out: MIC (mg/L)^a / MEM).
For the molecule `Cc1nnc(SCC2=C(C(=O)O)N3C(=O)[C@@H](NC(=O)Cn4cnnn4)[C@H]3SC2)s1` [cefazolin], the MIC in data set [1] (read-out: MIC (mg/L)^a / CZO) was 256 mg/L (≈ 563 µM); in data set [2] (read-out: MIC (mg/L) ^a / CZO), 256 mg/L (≈ 563 µM); in data set [3] (read-out: MIC (mg/L)^a / CZO), more than 256 mg/L; in the data set on E. coli DH10B (read-out: MIC (mg/L)^a / CZO), 2 mg/L (≈ 4.4 µM).
Regarding `CO/N=C(\C(=O)N[C@@H]1C(=O)N2C(C(=O)O)=C(COC(N)=O)CS[C@H]12)c1ccco1` [cefuroxime], the MIC was more than 256 mg/L in [1] (read-out: MIC (mg/L)^a / CXM), more than 256 mg/L in data set [2] (read-out: MIC (mg/L) ^a / CXM), more than 256 mg/L in [3] (read-out: MIC (mg/L)^a / CXM) and 4 mg/L (≈ 9.43 µM) with E. coli DH10B (read-out: MIC (mg/L)^a / CXM).
Regarding `CCN1CCN(C(=O)N[C@@H](C(=O)N[C@@H]2C(=O)N3[C@@H]2SC(C)(C)[C@@H]3C(=O)O)c2ccccc2)C(=O)C1=O` [piperacillin], the MIC was more than 256 mg/L in [1] (read-out: MIC (mg/L)^a / PIP), more than 256 mg/L in data set [2] (read-out: MIC (mg/L) ^a / PIP), more than 256 mg/L in data set [3] (read-out: MIC (mg/L)^a / PIP) and 2 mg/L (≈ 3.86 µM) with E. coli DH10B (read-out: MIC (mg/L)^a / PIP).
Consider `C[C@H]1[C@H](NC(=O)/C(=N\OC(C)(C)C(=O)O)c2csc(N)n2)C(=O)N1S(=O)(=O)O` [aztreonam], for which the MIC with E. coli DH10B (read-out: MIC (mg/L)^a / ATM) is less than 0.125 mg/L.
`CO/N=C(\C(=O)N[C@@H]1C(=O)N2C(C(=O)O)=C(CSc3nc(=O)c(O)nn3C)CS[C@H]12)c1csc(N)n1` [ceftriaxone]: in the data set on E. coli DH10B (read-out: MIC (mg/L)^a / CRO), the MIC was less than 0.125 mg/L.
On to `C[C@@H](O)[C@H]1C(=O)N2C(C(=O)O)=C(SCCN=CN)C[C@H]12` [imipenem], for which the MIC turned out to be 1 mg/L (≈ 3.34 µM) in [1] (read-out: MIC (mg/L)^a / IPM), 2 mg/L (≈ 6.68 µM) in data set [2] (read-out: MIC (mg/L) ^a / IPM), 16 mg/L (≈ 53.4 µM) in data set [3] (read-out: MIC (mg/L)^a / IPM) and 0.25 mg/L (≈ 0.835 µM) in the data set with E. coli DH10B (read-out: MIC (mg/L)^a / IPM).
Consider KPC-3 (Klebsiella pneumoniae), for which the Km in [4] was 233 ± 19 µM; in [5], 1,097 ± 84 μM; in [6], 512 ± 48 µM; in [7], 64 ± 3 µM; in data set [8], 24 ± 1 µM; in data set [9], 368 ± 16 µM. Besides, the turnover number (kcat) in [4] was 2.7 ± 0.2 s⁻¹; in [5], 5.2 ± 0.1 s⁻¹; in data set [6], 4.5 ± 0.3 s⁻¹; in data set [7] it was 33 ± 0.7 s⁻¹; in [8], 5.7 ± 0.4 s⁻¹; in [9], 61 ± 2 s⁻¹. The catalytic efficiency (kcat/Km) in [4] was found to be 11000 ± 1200 M⁻¹ s⁻¹; in data set [5] it was 4800 ± 400 M⁻¹ s⁻¹; in [6], 8900 ± 400 M⁻¹ s⁻¹; in data set [7] it was 520000 ± 34000 M⁻¹ s⁻¹; in data set [8], 230000 ± 16000 M⁻¹ s⁻¹; in [9] it was 170000 ± 13000 M⁻¹ s⁻¹.
`NC(=O)[C@@H]1CC[C@@H]2CN1C(=O)N2OS(=O)(=O)O` [avibactam]: on KPC-3, the Kd came out at 7.49 nM.
For `CC(C)(O/N=C(\C(=O)N[C@@H]1C(=O)N2C(C(=O)[O-])=C(C[n+]3ccccc3)CS[C@H]12)c1csc(N)n1)C(=O)O` [ceftazidime], the MIC is 8 mg/L (≈ 14.6 µM) in data set [1] (read-out: MIC (mg/L)^a / CAZ), 64 mg/L (≈ 117 µM) in data set [2] (read-out: MIC (mg/L) ^a / CAZ), more than 256 mg/L in data set [3] (read-out: MIC (mg/L)^a / CAZ) and 0.25 mg/L (≈ 0.457 µM) in the data set with E. coli DH10B (read-out: MIC (mg/L)^a / CAZ).
Turning to KPC-2 (Klebsiella pneumoniae), the Michaelis constant (Km) in data set [4] came out at 590 ± 48 µM; in [5], 793 ± 34 µM; in data set [6], 310 ± 23 µM; in [7], 98 ± 9 µM; in [8] it was 16 ± 1 µM; in [9] it was 110 ± 3 µM. Also, the kcat came out at 3.27 ± 0.27 s⁻¹ in data set [4]; 7.7 ± 0.5 s⁻¹ in [5]; 4.7 ± 0.1 s⁻¹ in [6]; 28 ± 2 s⁻¹ in data set [7]; 8 ± 0.5 s⁻¹ in data set [8]; 65 ± 5 s⁻¹ in [9]. The kcat/Km came to 5500 ± 400 M⁻¹ s⁻¹ in data set [4]; 9700 ± 900 M⁻¹ s⁻¹ in data set [5]; 15000 ± 1200 M⁻¹ s⁻¹ in data set [6]; 290000 ± 10000 M⁻¹ s⁻¹ in data set [7]; 500000 ± 50000 M⁻¹ s⁻¹ in [8]; 590000 ± 41000 M⁻¹ s⁻¹ in [9].

For orientation: Km means the concentration of substrate that gives half-maximal velocity. Usually kcat stands for the number of substrate molecules converted per active site and unit of time at saturation. Broadly, the kcat/Km is the second-order rate constant that governs catalysis at low substrate concentration. By Kd is commonly meant the equilibrium constant for the complex coming apart. Lower therefore signals tighter binding.
